Data reported in article PMC6333830.

Experiments:
[1] = molecular target: Src-phosphorylated 15N-KRAS (residues 1-173, C118S), not separated (human) (UniProt P01116)
[2] = molecular target: KRAS4B GTPase domain (residues 1-173, C118S), un-phosphorylated (human) (UniProt P01116)
[3] = molecular target: Src-phosphorylated 15N-KRAS (residues 1-173, C118S), not separated (human) (UniProt P01116); remark: listed apart in the source
[4] = molecular target: KRAS4B GTPase domain (residues 1-173, C118S), un-phosphorylated (human) (UniProt P01116); remark: listed apart in the source

| increase of the rate of GTP hydrolysis of pKRAS by the RASA1 GAP domain at a 1:3000 molar ratio, real-time NMR [1] [%] | acceleration of the rate of GTP hydrolysis of KRAS by the RASA1 GAP domain at a 1:3000 molar ratio, real-time NMR [2] [%] | fold acceleration of nucleotide exchange (GDP to GTPγS) of pKRAS by SOS^cat at a ratio of 1:600, real-time NMR [3] [fold] | fold acceleration of nucleotide exchange (GDP to GTPγS) of KRAS by SOS^cat at a ratio of 1:600, real-time NMR [4] [fold] | Substance |
| --- | --- | --- | --- | --- |
| < 20 | > 300 | – | – | GAP domain of human RASA1 (residues 715-1074) (domain or fragment) |
| – | – | < 3 | 17 | catalytic domain of Son of Sevenless 1 (SOS^cat, residues 564-1049) (from UniProt Q07889 564-1049) (domain or fragment) |
